Measurements from the supplement of paper PMC10724198.
± gives the standard deviation of the averaged measurements.
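Also: PSI is a weighted mean of sequencing reads over stability bins, variants kept only with over 10 reads, mCherry proximal and sfGFP distal, peptide attached via GGGS linker.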

These sequences were tested on Saccharomyces cerevisiae (assay: protein stability index of tFT-peptide fusion (C-terminal peptide) (PSI (0-1 scale)); higher = more stable (slower turnover)). Settings: genetic background: wild type; temperature: 30 C.
Protocol: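 Multiplexed protein stability (MPS) profiling in S. cerevisiae. Random 12-aa peptides (tFT-X12 library) are fused to the C-terminus of a sfGFP-mCherry tandem fluorescent timer, after mCherry and a GGGS linker. Cells are FACS-sorted into 8 mCherry/sfGFP bins and deep-sequenced. The protein stability index (PSI) is the read-weighted bin average, scaled from 0 (unstable) to 1 (stable). Only peptides with >10 reads are reported; cells were grown at 30 °C in SC-His with glucose.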
DLRSSDPVAGSL was tested, and the protein stability index was 0.623 ± 0.011. With DLTPWLAPFRER the protein stability index was 0.797 ± 0.097. For DLWDDVAYVIVA, the protein stability index was 0.619 ± 0.039. With DMYLPSSSHPPP the protein stability index was 0.712 ± 0.021. With DMYSVTRDHVMI the protein stability index was 0.655 ± 0.04. Work on DNARCKSPRSLN yielded a protein stability index of 0.621 ± 0.092. Work on DNEMLQICRSRW yielded a protein stability index of 0.774 ± 0.029. With DNGVLVFLPVLD the protein stability index was 0.6791 ± 0.0066. DNMKLILNGYNL was tested, and the protein stability index was 0.658 ± 0.03. With DNSIWPSALCAP the protein stability index was 0.703 ± 0.047. DNWHRSFSTYPV was tested, and the protein stability index was 0.647 ± 0.099. DPPFPSGPPLPL showed a protein stability index of 0.6742 ± 0.0061. DPPPHPPPASPT was tested, and the protein stability index was 0.7 ± 0.1. For DPVLPSVRVSLG, the protein stability index was 0.715 ± 0.068. For DQDVPLWGLVSM, the protein stability index was 0.682 ± 0.054. DQESTRLRWGTS was tested, and the protein stability index was 0.66 ± 0.041. For DQNNSQIRHEQP, the protein stability index was 0.575 ± 0.03. DQRCRLQGRYQR showed a protein stability index of 0.733 ± 0.12. DQRLKKKTVQMK showed a protein stability index of 0.778 ± 0.076. With DQVWGGSEDNTV the protein stability index was 0.76 ± 0.052. With DRCLFRFNLWGG the protein stability index was 0.7203 ± 0.0063. In the case of DRFPGLILVSFP, the protein stability index is reported as 0.73 ± 0.05. DRGKGEKGKKAD was tested, and the protein stability index was 0.6797 ± 0.0036. For DRHVPPASYLAD, the protein stability index was 0.6343 ± 0.0057. For DRLGDCRKPRPF, the protein stability index was 0.657 ± 0.099. DRNGKIGTFKKV showed a protein stability index of 0.795 ± 0.12. Work on DRNVMNGFTRPG yielded a protein stability index of 0.659 ± 0.034. For DRPPPPPRSSPL, the protein stability index was 0.753 ± 0.046. DRQGMIGLKYVK gave a protein stability index of 0.776 ± 0.11. With DRRRGVGESSFG the protein stability index was 0.703 ± 0.025. Work on DRWIGLWGGLWV yielded a protein stability index of 0.63 ± 0.018. In the case of DRYGVYPIYGKF, the protein stability index is reported as 0.6855 ± 0.0054. Sequence DSASFAFCCFCD has a protein stability index of 0.639 ± 0.023. DSESSLPSLPHT showed a protein stability index of 0.682 ± 0.015. In the case of DSGRRVTLLVFV, the protein stability index is reported as 0.594 ± 0.041. DSHRRPGSPPPL gave a protein stability index of 0.688 ± 0.11. DSILYKKYKQLG gave a protein stability index of 0.559 ± 0.024. Sequence DSMLTYIRSTKD has a protein stability index of 0.633 ± 0.007. Sequence DSPPMTALITDF has a protein stability index of 0.697 ± 0.019. DSPRTFWGPTQK gave a protein stability index of 0.699 ± 0.055. Work on DSQAEPGLSARL yielded a protein stability index of 0.796 ± 0.059. With DSSDIELSTRTL the protein stability index was 0.651 ± 0.027. With DSVQALDGRAGI the protein stability index was 0.683 ± 0.046. Work on DTDLWFASVFSS yielded a protein stability index of 0.793 ± 0.022. For DTNRALMRKSHS, the protein stability index was 0.673 ± 0.0088. For DVDWVLTLGCLG, the protein stability index was 0.647 ± 0.034. DVELTGCCLSRT was tested, and the protein stability index was 0.696 ± 0.026. For DVGGDGDCVVSS, the protein stability index was 0.661 ± 0.0024. In the case of DVGRDVCEFRDR, the protein stability index is reported as 0.677 ± 0.045. Sequence DVHPPPPAPPPP has a protein stability index of 0.747 ± 0.12. With DVKNMVWKTIEL the protein stability index was 0.6746 ± 0.0065. DVLSLFCKFFGV was tested, and the protein stability index was 0.661 ± 0.075. For DVLVHETFLCRL, the protein stability index was 0.774 ± 0.016. For DVVPYLGYYFFC, the protein stability index was 0.578 ± 0.01. With DVYDLGLPINMS the protein stability index was 0.698 ± 0.045. Sequence DWSHLLTSHAII has a protein stability index of 0.703 ± 0.041. EAGGAQGPTGEL was tested, and the protein stability index was 0.634 ± 0.02. In the case of EAQGVEMMGWAV, the protein stability index is reported as 0.696 ± 0.025. Work on EARPQAMPGRHP yielded a protein stability index of 0.689 ± 0.024. ECNESSACRNHY was tested, and the protein stability index was 0.65 ± 0.032. For EDKETETSVNQK, the protein stability index was 0.6758 ± 0.0059. For EDKVHQSSACHQ, the protein stability index was 0.707 ± 0.03. In the case of EDNRTSEMFVFY, the protein stability index is reported as 0.753 ± 0.14. EDSRATNERGRT showed a protein stability index of 0.704 ± 0.049. EEFTSRAFRISW gave a protein stability index of 0.744 ± 0.13. With EERAGTRGGRGR the protein stability index was 0.743 ± 0.13. In the case of EFERWCGLGRFG, the protein stability index is reported as 0.744 ± 0.096. EFFVLVHLVDPK showed a protein stability index of 0.638 ± 0.041. Work on EFVFLLSNTFNS yielded a protein stability index of 0.749 ± 0.03. Work on EGAGGVVVEGLG yielded a protein stability index of 0.68 ± 0.028. In the case of EGAVGMSGSLGV, the protein stability index is reported as 0.668 ± 0.063. With EGCGLQRGMGVL the protein stability index was 0.681 ± 0.0096. With EGDACCGVDGKR the protein stability index was 0.663 ± 0.13. For EGGETDRSLMVV, the protein stability index was 0.66 ± 0.014. In the case of EGGGWGVGSEVG, the protein stability index is reported as 0.694 ± 0.035. EGGMLNAVRPRS showed a protein stability index of 0.663 ± 0.048. EGGRFTALSSTS was tested, and the protein stability index was 0.689 ± 0.039. With EGGRGYGRGRYG the protein stability index was 0.685 ± 0.051. EGGVERIHKPSS gave a protein stability index of 0.654 ± 0.061. Sequence EGKRGKTGVRRI has a protein stability index of 0.743 ± 0.055. For EGLRLWGRCCWG, the protein stability index was 0.74 ± 0.048. Work on EGPLVRGSGVDV yielded a protein stability index of 0.637 ± 0.043. Work on EGQVGVGWGWVR yielded a protein stability index of 0.786 ± 0.12. EGRRCQGGVWRE was tested, and the protein stability index was 0.6818 ± 0.0061. For EGTIDSGRHSLK, the protein stability index was 0.752 ± 0.15. Work on EGTKEKGEKRRR yielded a protein stability index of 0.666 ± 0.065. Sequence EGTTRDGERCRT has a protein stability index of 0.696 ± 0.0056. For EGVSGVSLFRVL, the protein stability index was 0.661 ± 0.051. For EHCGRGMGSGAA, the protein stability index was 0.673 ± 0.012. Work on EHFGFYFIFNLY yielded a protein stability index of 0.58 ± 0.034. In the case of EIEYVEPSIPET, the protein stability index is reported as 0.702 ± 0.046. For EIGWEGLAGRGG, the protein stability index was 0.754 ± 0.029. EIKKKNPSTTRR gave a protein stability index of 0.663 ± 0.01. Sequence EISKVRGAVDRK has a protein stability index of 0.689 ± 0.033. EITLFELWPPGS showed a protein stability index of 0.78 ± 0.03. For EKCCVNSASSFG, the protein stability index was 0.646 ± 0.0098. Work on EKKKNTQGIKKK yielded a protein stability index of 0.685 ± 0.011. EKKKRRASREDS showed a protein stability index of 0.6744 ± 0.0039. EKKKSCIMILRK was tested, and the protein stability index was 0.701 ± 0.039. EKKKSKGRRKLM gave a protein stability index of 0.705 ± 0.081. EKKRKKIYGNLK gave a protein stability index of 0.683 ± 0.13. EKRDKREVRPGK showed a protein stability index of 0.6626 ± 0.0055. EKRKEKKKRGKE showed a protein stability index of 0.797 ± 0.16. EKRQNLKPMRTV showed a protein stability index of 0.686 ± 0.026. In the case of EKSKNQKPHAAR, the protein stability index is reported as 0.633 ± 0.0088. With EKTKEEKKLRTK the protein stability index was 0.647 ± 0.046. Work on EKTKEKKAKKYG yielded a protein stability index of 0.694 ± 0.027. For EKYASINSSKPP, the protein stability index was 0.671 ± 0.068. With EKYSSHPMDTRQ the protein stability index was 0.653 ± 0.013. Sequence ELCFFISLVPDF has a protein stability index of 0.642 ± 0.007. Sequence ELEIKGRRQIKT has a protein stability index of 0.666 ± 0.055. Work on ELLKQRTRKRQK yielded a protein stability index of 0.693 ± 0.021. Work on ELNENKKKKEHL yielded a protein stability index of 0.714 ± 0.12. ELRADRTYTGIV was tested, and the protein stability index was 0.752 ± 0.054. ELTKNRQTVIIS showed a protein stability index of 0.635 ± 0.035. ELTPCGNNDHAI gave a protein stability index of 0.644 ± 0.0087. Sequence ELVISTGRLQKS has a protein stability index of 0.637 ± 0.019. With EMTWGSIWPERH the protein stability index was 0.731 ± 0.05. ENCDSAEPGTRV was tested, and the protein stability index was 0.676 ± 0.033. For ENHPATICGFYR, the protein stability index was 0.767 ± 0.087. ENPSTIDLSARS was tested, and the protein stability index was 0.656 ± 0.04. ENVGRASDHSLS was tested, and the protein stability index was 0.679 ± 0.097. With EPATEGDSREHW the protein stability index was 0.708 ± 0.024. For EPGQWRAASYGF, the protein stability index was 0.71 ± 0.024. With EPNRIAKYYKKY the protein stability index was 0.686 ± 0.16. EPPELSISALGF was tested, and the protein stability index was 0.6865 ± 0.0021. EPTGEPKQKKEG was tested, and the protein stability index was 0.707 ± 0.035. EQGLRRRVFFEV gave a protein stability index of 0.644 ± 0.013. Work on EQHTKNDQNNEP yielded a protein stability index of 0.664 ± 0.028. ERANMSRGNQTE showed a protein stability index of 0.687 ± 0.025. With EREKKNKKGGCQ the protein stability index was 0.69 ± 0.018. ERGALNRKDTRG gave a protein stability index of 0.662 ± 0.023. Sequence ERGEEGGRERRR has a protein stability index of 0.7 ± 0.0073. With ERGSGSVPGGRD the protein stability index was 0.649 ± 0.035. With ERKEERGREGKR the protein stability index was 0.628 ± 0.031. ERKEPRIQQQTL showed a protein stability index of 0.67 ± 0.075. In the case of ERLSEYYPLIKC, the protein stability index is reported as 0.602 ± 0.044. ERMVENNVKGRK gave a protein stability index of 0.6811 ± 0.0027. In the case of ERRKGGEKGKKK, the protein stability index is reported as 0.691 ± 0.047. ERSDRLWEVSKG gave a protein stability index of 0.685 ± 0.035. With ERVQTRTTANRD the protein stability index was 0.639 ± 0.059. ERWRVYERYARG was tested, and the protein stability index was 0.692 ± 0.058. Sequence ESDLNDLGQNLN has a protein stability index of 0.674 ± 0.058. ESGGGGGGGRER was tested, and the protein stability index was 0.5726 ± 0.0016. ESIGCINIRMRG showed a protein stability index of 0.694 ± 0.013. With ESRARCGEQAIY the protein stability index was 0.641 ± 0.066. ESTNKKKEKKNR was tested, and the protein stability index was 0.661 ± 0.04. For ESVCFRPKCVCK, the protein stability index was 0.5929 ± 0.0046. Work on ESVKVTIAKVMK yielded a protein stability index of 0.708 ± 0.016. ETRSDAVVVFTK gave a protein stability index of 0.694 ± 0.021. In the case of ETVLQVRRRVVR, the protein stability index is reported as 0.6553 ± 0.0028. EVASMSCPVFLF gave a protein stability index of 0.652 ± 0.03. In the case of EVCAGDDIRYLV, the protein stability index is reported as 0.645 ± 0.026. EVCFVWSLGEVL gave a protein stability index of 0.623 ± 0.019. Work on EVCGSGCGCGLC yielded a protein stability index of 0.74 ± 0.11.
